From publication PMC545490, “Mapping and mutation of the conserved DNA polymerase interaction motif (DPIM) located in the C-terminal domain of fission yeast DNA polymerase δ subunit Cdc27” (BMC Molecular Biology, 2004) come the findings set out here.

B1: Gal4-Cdc27-273-352 (wild type) [S. pombe] / LexA-Pol1-278-527 [S. pombe] (parent complex)
chain 1: TEAKSAAPDEPQEIIKSVSGGKRRGKRKVKKYATTKDEEGFLVTKEEEVWESFSEDENISTGTSNVVRNKPTTVNIATKK
chain 2: PLSPMTPLSSELDVSAFSEINSKIKNVDVPASSYSSPISKVSPSDVTEEDGSLFFFWMDYTEMYGSLCLFGKVYDKATKQYVSCFLKVDGIMRSLYFLPRPSSSSVSEDSIAAQTKDVYDEVANLLSKRGVKEWKSRVSKYKYAFELEDVPRTADYLEVIYSYSYPALPTDLTGSSFSHVFGTNTALFEQFVLSRRVMGPCWLKIQQPNFDAVKNASWCRVEIGCSSPQNISVSFEKNEITSKTPPMTVM

This assay covers variants of B1. As to the kind of experiment: yeast two-hybrid, β-galactosidase activity in liquid cultures; parent: 150; read off a plot.
For chain 1 TEAKSAAPDEPQEIIKSVSGGAAAGKRKVKKYATTKDEEGFLVTKEEEVWESFSEDENISTGTSNVVRNKPTTVNIATKK, the response is around 46 Miller units.
With chain 1 TEAKSAAPDEPQEIIKSVSGGKRRGKRKVAAYATTKDEEGFLVTKEEEVWESFSEDENISTGTSNVVRNKPTTVNIATKK the figure was around 35 Miller units.
